{"source": "paper PMC5382721", "about": "(Cell reports, 2017)", "key": {"[1]": {"biological_target": "GST-eIF3c-G_(1–58) (yeast (S. cerevisiae)) (UniProt P32497)", "assay": "pull-down"}, "[2]": {"biological_target": "GST-eIF3c-E_(87–163) (yeast (S. cerevisiae)) (UniProt P32497)", "assay": "pull-down"}, "[3]": {"biological_target": "eIF1 (yeast (S. cerevisiae)) (UniProt P32911)", "sequence (P32911 whole entry)": "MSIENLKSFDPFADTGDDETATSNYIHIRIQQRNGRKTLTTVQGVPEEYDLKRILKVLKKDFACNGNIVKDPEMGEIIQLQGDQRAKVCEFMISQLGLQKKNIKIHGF", "assay": "ITC"}, "eIF1-L96P": {"biological_target": "eIF1-L96P (yeast (S. cerevisiae), UniProt P32911 1-108, L96P)", "sequence (P32911 whole entry L96P)": "as the sequence (P32911 whole entry) above, with L96P counted along it", "assay": "ITC"}, "eIF1-K37E": {"biological_target": "eIF1-K37E (yeast (S. cerevisiae), UniProt P32911 1-108, K37E)", "sequence (P32911 whole entry K37E)": "as the sequence (P32911 whole entry) above, with K37E counted along it", "assay": "ITC"}, "eIF1": {"biological_target": "eIF1 (yeast (S. cerevisiae), UniProt P32911 1-108)", "sequence (P32911 whole entry)": "as the sequence (P32911 whole entry) above", "assay": "ITC"}}, "data": [{"molecule": "eIF1 (from UniProt P32911 1-108) (natural protein)", "values": [{"measurement": "amount of eIF1 bound relative to that bound to GST-eIF3c-F", "setting": "[1]", "value": "< 10", "unit": "%"}, {"measurement": "amount of eIF1 bound relative to that bound to GST-eIF3c-F", "setting": "[2]", "value": "< 10", "unit": "%"}]}, {"molecule": "eIF3c-E_(87–163) (from UniProt P32497 87-163) (domain or fragment)", "values": [{"measurement": "Kd", "setting": "[3]", "value": "> 100000", "unit": "nM"}, {"measurement": "stoichiometry N (eIF3c molecules bound per eIF1 molecule)", "setting": "[3]", "value": 0.4}]}, {"molecule": "eIF3c-B_(36–163) (domain or fragment, yeast (S. cerevisiae), UniProt P32497 36-163, looked up) SESELDQESDDSFFNESESESEADVDSDDSDAKPYGPDWFKKSEFRKQGGGSNKFLKSSNYDSSDEESDEEDGKKVVKSAKEKLLDEMQDVYNKISQAENSDDWLTISNEFDLISRLLVRAQQQNWGT", "values": [{"measurement": "fold reduction of affinity against WT eIF1", "setting": "eIF1-L96P", "value": 10, "unit": "fold"}, {"measurement": "fold reduction of binding against WT eIF1", "setting": "eIF1-K37E", "value": 4, "unit": "fold"}]}, {"molecule": "eIF3c-C_(36–87) (domain or fragment, yeast (S. cerevisiae), UniProt P32497 36-87, looked up) SESELDQESDDSFFNESESESEADVDSDDSDAKPYGPDWFKKSEFRKQGGGS", "values": [{"measurement": "Kd", "setting": "eIF1", "value": "~1000", "unit": "nM"}]}, {"molecule": "eIF3c-D_(58–163) (domain or fragment, yeast (S. cerevisiae), UniProt P32497 58-163, looked up) ADVDSDDSDAKPYGPDWFKKSEFRKQGGGSNKFLKSSNYDSSDEESDEEDGKKVVKSAKEKLLDEMQDVYNKISQAENSDDWLTISNEFDLISRLLVRAQQQNWGT", "values": [{"measurement": "Kd", "setting": "eIF1", "value": "~8000", "unit": "nM"}, {"measurement": "stoichiometry N", "setting": "eIF1", "value": "1 eIF3c molecules bound per eIF1 molecule"}]}, {"molecule": "eIF3c-F_(1–87) (domain or fragment, yeast (S. cerevisiae), UniProt P32497 1-87, looked up) MSRFFSSNYEYDVASSSSEEDLLSSSEEDLLSSSSSESELDQESDDSFFNESESESEADVDSDDSDAKPYGPDWFKKSEFRKQGGGS", "values": [{"measurement": "Kd", "setting": "eIF1", "value": "~1000", "unit": "nM"}]}]}
